Test results taken from the supplement of paper PMC7877785.
± gives the uncertainty stated by the source.

Experiment: self-splicing fitness, log relative to wild type (ln ratio); higher = more splicing; Tetrahymena group I intron in knt gene, E. coli kanamycin selection, DiMSum; sequences stand for … in CUCUCU…GGAGGGAAAAGUUAUCAGGCAUGCACCUGGUAGCUAGUCUUUAAACCAAUAGAUUGCAUCGGUUUAAAAGGCAAGACCGUCAAAUUGCGGGAAAGGGGUCAACAGCCGUUCAGUACCAAGUCUCAGGGGAAACUUUGAGAUGGCCUUGCAAAGGGUAUGGUAAUAAGCUGACGGACAUGGUCCUAACCACGCAGCCAAGUCCUAAGUCAACAGAUCUUCUGUUGAUAUGGAUGCAGUUCACAGACUAAAUGUCGGUCGGGGAAGAUGUAUUCUUCUCAUAAGAUAUAGUCGGACCUCUCCUUAAUGGGAGCUAGCGGAUGAAGUGAUGCAACACUGGAGCCGCUGGGAACUAAUUUGUAUGCGAAAGUAUAUUGAUUAGUUUUGGAGUACUCGUGGUCG
How it was run: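 A randomised library covering all eight P1ex-region intron nucleotides was built with the intron in the knt kanamycin-resistance gene on pET-22b(+) and held in E. coli BL21(DE3). Cells were grown overnight at 37°C or 30°C on LB agar, with or without 25 μg/mL kanamycin, plus 100 μg/mL carbenicillin, 50 μM IPTG and 0.2% rhamnose, and pooled colonies were amplicon-sequenced on an Illumina HiSeq 2500. DiMSum fitness is the error-weighted combination of wild-type-normalised replicate fold changes, kanamycin versus none.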

Sequence	self-splicing fitness (ln) (37 °C)	self-splicing fitness (ln) (30 °C)
AGAGAGCAAUAUUACGACAA	-2.46 ± 0.48	
CGAGAGCAAUAUUACGUUAU	-2.8 ± 0.28	-3.57 ± 0.28
GCUCAGCAAUAUUACGUACC	0.487 ± 0.1	0.00766 ± 0.067
UAGAAGCAAUAUUACGCAGC	-2.93 ± 0.31	-4.25 ± 0.46
CUGGAGCAAUAUUACGCAGU	-1.99 ± 0.43	
ACGAAGCAAUAUUACGCCCG	-0.0289 ± 0.14	-0.0902 ± 0.13
CGCCAGCAAUAUUACGCCGA	-1.65 ± 0.19	-2.87 ± 0.23
GCCUAGCAAUAUUACGUUAG	-2.4 ± 0.16	-4.33 ± 0.18
AAGCAGCAAUAUUACGAUCG	-0.905 ± 0.12	-2.29 ± 0.14
CACUAGCAAUAUUACGAGCG	0.257 ± 0.086	-0.458 ± 0.083
GUCCAGCAAUAUUACGGCUC	0.909 ± 0.12	-0.432 ± 0.077
GUGAAGCAAUAUUACGCCCU	0.602 ± 0.15	-0.176 ± 0.13
AUUAAGCAAUAUUACGGGUA	-0.0398 ± 0.12	-2.2 ± 0.17
UCGAAGCAAUAUUACGGUUA	-0.97 ± 0.097	-0.579 ± 0.12
GGGCAGCAAUAUUACGUGCG	-0.235 ± 0.077	-0.439 ± 0.057
AUGGAGCAAUAUUACGAUCU	-0.713 ± 0.31	
CAGGAGCAAUAUUACGUCCU	-2.08 ± 0.24	-2.72 ± 0.24
UAUAAGCAAUAUUACGAAAC	-0.0191 ± 0.39	
GCUCAGCAAUAUUACGUACG	-0.485 ± 0.09	-1.72 ± 0.11
UGCCAGCAAUAUUACGCGAA	0.357 ± 0.11	-1.33 ± 0.11
CUUGAGCAAUAUUACGUGUA	-2.84 ± 0.2	-2.71 ± 0.14
UGCUAGCAAUAUUACGGAAG	-2.31 ± 0.39	-3.4 ± 0.35
UCCAAGCAAUAUUACGCCUC	-2.53 ± 0.28	-2.33 ± 0.29
GUCAAGCAAUAUUACGUUAA	-1.74 ± 0.1	-2.02 ± 0.12
CCGCAGCAAUAUUACGCUUU	-2.97 ± 0.18	-3.86 ± 0.18

Sequence	self-splicing fitness (ln) (37 °C)	self-splicing fitness (ln) (30 °C)
AUCAAGCAAUAUUACGUGAA	-1.45 ± 0.1	-1.73 ± 0.071
ACCGAGCAAUAUUACGUUCC	-1.66 ± 0.23	-2.7 ± 0.26
GUGGAGCAAUAUUACGGGAC		-2.17 ± 0.29
CGACAGCAAUAUUACGCGUC	-2.76 ± 0.27	-1.94 ± 0.14
CCUAAGCAAUAUUACGGUGG	-2.03 ± 0.14	-2.76 ± 0.11
GGUCAGCAAUAUUACGAAGU	-0.336 ± 0.1	-0.729 ± 0.076
AAACAGCAAUAUUACGUGUG	-1.38 ± 0.07	-2.38 ± 0.057
GCCAAGCAAUAUUACGCUAU	-0.923 ± 0.078	-1.23 ± 0.064
GAUAAGCAAUAUUACGGGUU	-2.26 ± 0.15	-2.18 ± 0.12
GGGUAGCAAUAUUACGAGCU	-1.33 ± 0.19	-0.974 ± 0.17
CUUGAGCAAUAUUACGGUAA	-2.99 ± 0.47	
UUACAGCAAUAUUACGUCUA	-0.0325 ± 0.079	-0.0634 ± 0.086
CGCUAGCAAUAUUACGUUCA	-1.68 ± 0.14	-1.39 ± 0.12
UGCCAGCAAUAUUACGCGGG	-2.44 ± 0.22	-3.4 ± 0.2
UCGUAGCAAUAUUACGUUGG	-0.973 ± 0.17	-2.59 ± 0.17
GAACAGCAAUAUUACGGAUC	-0.441 ± 0.08	-0.794 ± 0.06
AGCCAGCAAUAUUACGGUGC	-2.28 ± 0.17	-2.49 ± 0.12
CCGCAGCAAUAUUACGCUCU	-2.18 ± 0.2	-4.04 ± 0.42
GUCUAGCAAUAUUACGCAUA	-0.121 ± 0.12	-1.08 ± 0.14
UGUGAGCAAUAUUACGGCUG	-0.456 ± 0.19	-0.445 ± 0.12
UCUUAGCAAUAUUACGUCCU	-2.7 ± 0.38	-1.97 ± 0.28
CCCGAGCAAUAUUACGAUAC	-1.57 ± 0.36	-2.29 ± 0.27
GCGCAGCAAUAUUACGUCAA	-0.0917 ± 0.1	-2.46 ± 0.14
UAGGAGCAAUAUUACGGGUG	-1.14 ± 0.26	-2.74 ± 0.27
AGUUAGCAAUAUUACGAGAG	-2.24 ± 0.22	-3.75 ± 0.29

Sequence	self-splicing fitness (ln) (37 °C)	self-splicing fitness (ln) (30 °C)
ACAGAGCAAUAUUACGCGUA	-2.91 ± 0.23	-3.21 ± 0.2
AUCCAGCAAUAUUACGGACU	0.126 ± 0.082	-0.507 ± 0.068
UGCCAGCAAUAUUACGCAAC	-0.966 ± 0.42	
UCGAAGCAAUAUUACGACUA	-0.97 ± 0.13	-1.05 ± 0.16
AGUUAGCAAUAUUACGUGUA	-0.97 ± 0.15	-2.26 ± 0.23
GAGAAGCAAUAUUACGACUU	-1.14 ± 0.14	-1.9 ± 0.14
CAAAAGCAAUAUUACGACGC	-1.14 ± 0.14	-0.886 ± 0.092
CCUUAGCAAUAUUACGCUUC	-1.83 ± 0.24	-3.71 ± 0.31
GACCAGCAAUAUUACGUUCA	-0.163 ± 0.097	-0.884 ± 0.1
AUGCAGCAAUAUUACGCGCU	-1.22 ± 0.12	-1.37 ± 0.097
AAACAGCAAUAUUACGCCAA	-1.44 ± 0.15	-3.08 ± 0.25
CUAGAGCAAUAUUACGCGCC		-2.12 ± 0.38
GAGCAGCAAUAUUACGUGCA	-0.471 ± 0.081	-1.15 ± 0.071
UGGGAGCAAUAUUACGUAAG	-1.12 ± 0.2	-0.459 ± 0.15
GGAAAGCAAUAUUACGCUAA	-1.08 ± 0.27	-0.882 ± 0.25
CAGUAGCAAUAUUACGUCCG	1.29 ± 0.42	-0.245 ± 0.24
GUUAAGCAAUAUUACGUGCG	-1.15 ± 0.12	-0.344 ± 0.12
CAUCAGCAAUAUUACGCGGU	-2.39 ± 0.22	-3.35 ± 0.18
AGAGAGCAAUAUUACGAUGA	-2.37 ± 0.23	-3.27 ± 0.24
UAAAAGCAAUAUUACGGAUU	-1.56 ± 0.19	-2.12 ± 0.14
CAUUAGCAAUAUUACGCUAU	-2.99 ± 0.28	-3.47 ± 0.3
AGGGAGCAAUAUUACGCCAU		-3.13 ± 0.43
AAGAAGCAAUAUUACGGUGC	-1.68 ± 0.17	-3.77 ± 0.2
UGGCAGCAAUAUUACGUCUC	-0.21 ± 0.13	-1.64 ± 0.11
CCUCAGCAAUAUUACGAUAU	-0.929 ± 0.15	-4.25 ± 0.25

Sequence	self-splicing fitness (ln) (37 °C)	self-splicing fitness (ln) (30 °C)
CACGAGCAAUAUUACGCUAU	-2.56 ± 0.28	-2.42 ± 0.21
GCCCAGCAAUAUUACGUUUC	-1.37 ± 0.1	-1.36 ± 0.078
UGAGAGCAAUAUUACGGAGG	-1.91 ± 0.3	-2.31 ± 0.28
AAACAGCAAUAUUACGUUGA	-1.23 ± 0.089	-2.58 ± 0.094
UCGAAGCAAUAUUACGUGCU	-3.77 ± 0.31	-3.75 ± 0.18
UCCUAGCAAUAUUACGGGCG	-0.227 ± 0.11	-0.227 ± 0.093
GACCAGCAAUAUUACGGCGG	-2.79 ± 0.27	-2.55 ± 0.2
CCAUAGCAAUAUUACGUUAG	-2.01 ± 0.13	-3.33 ± 0.13
UACGAGCAAUAUUACGCGCA	-1.03 ± 0.17	-1.42 ± 0.19
CGAUAGCAAUAUUACGUAGA	-1.3 ± 0.13	-3.31 ± 0.17
UAUCAGCAAUAUUACGGGCC	-2.07 ± 0.3	
GAUCAGCAAUAUUACGGCUU	-0.596 ± 0.1	-0.164 ± 0.092
UCGAAGCAAUAUUACGAGCA	0.162 ± 0.14	-1.77 ± 0.14
UACGAGCAAUAUUACGCCGC	-2.1 ± 0.3	-2.03 ± 0.41
GUGGAGCAAUAUUACGACUC	-1.47 ± 0.44	-3.19 ± 0.45
UUAAAGCAAUAUUACGGUGC	-2.14 ± 0.34	-4.36 ± 0.42
GCCCAGCAAUAUUACGCGUG	-2.41 ± 0.12	-3.68 ± 0.13
CGAAAGCAAUAUUACGCUUC	-2.01 ± 0.39	-2.95 ± 0.38
UCGCAGCAAUAUUACGGCUU	0.404 ± 0.12	-1.16 ± 0.08
UCAAAGCAAUAUUACGGACC	-2.54 ± 0.32	
GCUUAGCAAUAUUACGUGGA	-0.531 ± 0.11	-2.06 ± 0.13
CUGAAGCAAUAUUACGUAGG	-2.36 ± 0.25	-3.21 ± 0.18
UUAUAGCAAUAUUACGGGAU	-3.5 ± 0.42	-2.78 ± 0.39
